B1: 02-140 peptide phage clone (ErbB2-binding peptide 16) (peptide)
peptide: WTGWCLNPEESTWGFCSGYI
notes: From an EC-1 biased peptide phage library; also called EBP-16
B2: 02-135 peptide phage clone (ErbB2-binding peptide 17) (peptide)
peptide: WTGWCFDDNHSTWGFCTGSF
notes: From an EC-1 biased peptide phage library; also called EBP-17
B3: 02-124 peptide phage clone (ErbB2-binding peptide 14) (peptide)
peptide: WTGWCLNPEESTWGFCRSAG
notes: From an EC-1 biased peptide phage library; also called EBP-14
B4: 02-137 peptide phage clone (ErbB2-binding peptide 15) (peptide)
peptide: WTGWCLSPEESTWGFCRSAG
notes: From an EC-1 biased peptide phage library; also called EBP-15

Assays:
[1] = molecular target: T1, purified ErbB2 ECD-polyhistidine-tagged protein (human, UniProt P04626 23-653); test: phage ELISA on coated CBECD, BSA as control
T1 construct: also called CBECD; purified extracellular domain of ErbB2 with a His tag; not shown: polyhistidine tag
Protocol: SfmECDAP labeled wells were plated with 250 ng of a purified ErbB2 ECD-alkaline phosphatase fusion protein; CBECD labeled wells were plated with 250 ng of a purified ErbB2 ECD-polyhistidine-tagged protein; bovine serum albumin (denoted BSA) was used as a negative target control. E12 and CB1 are peptide phage clones identified independently that display an identical (ErbB2-binding) peptide. E12CB1-NA peptide phage clones were constructed to present, with and without a glycine-glycine-alanine linker, a shortened form of the peptide. […] G78 is a peptide phage clone that binds strongly to the Grb7 SH2 domain, used here as a negative peptide phage control. Library phage also serve as a negative peptide phage control. 9G6 is an antibody to the ECD of ErbB2.

[2] = molecular target: T2, native, intact ErbB2 extracted from the membranes of human breast cancer cells (human, UniProt P04626 23-1255); test: phage ELISA on captured membrane lysates
T2 construct: Whole native receptor from cell membrane lysates, captured on plates by an antibody to the intracellular domain of ErbB2; Whole entry named; also called ErbB2 in solubilized membrane preparations / lysates of BT474 and SKBR3 cells
Protocol: The above identified peptide phage specifically bind to native, intact ErbB2 extracted from the membranes of human breast cancer cells that overexpress ErbB2. Plates were coated with 1 μg of an antibody that binds to the intracellular domain of ErbB2, followed by 100 μl of solubilized membrane preparations from two different breast cancer cell lines that overexpress ErbB2 (BT474 and SKBR3), and probed with CB1 peptide-phage, control library phage, and 9G6 anti-ErbB2. MCF7 cells serve as a (relative) negative target control, as MCF7 breast cancer cells express only a low level of ErbB2.

Binder	binding result [1]	binding result [2]
B1	binds	binds
B2	binds	binds
B3	binds	binds
B4	binds	binds

— patent US20030216309A1 (UNIVERSITY OF VERMONT AND STATE AGRICULTURAL COLLEGE, published 2003)
